The record followed here is PMC10471779, “Antibody-mediated neutralization of galectin-3 as a strategy for the treatment of systemic sclerosis” (Nature Communications, 2023).

Holding throughout (conditions): both partners purified
Test [1] has as its target T1, recombinant human galectin-3 carbohydrate recognition domain, His-tagged (hGal-3-CRD-His Nter) (human, UniProt P17931).
T1 construct: galectin-3, human, carbohydrate recognition domain; also called CRD of hGal-3; source: recombinant, produced by Novalix (Illkirch, France); not shown: His, N-terminal, kept
Nature of the test: ELISA; competition ELISA: hGal-3-CRD coated at 1 ug/mL, IgG 0.0006 to 780 nM for 1 h, washed, then asialofetuin at 8 ug/mL for 30 min; bound asialofetuin detected by HRP-labelled anti-asialofetuin antibody.

In test [2] the target is T2, recombinant mouse galectin-3, full length, His-tagged (mGal-3-FL-His Nter) (Mus musculus, UniProt P16110).
T2 construct: galectin-3, mouse, full length; source: recombinant, produced by Novalix (Illkirch, France); not shown: His, N-terminal, kept
Kind of test: SPR; Biacore T-200, mAb captured on anti-human Fc CM5 surface, Gal-3 0.5 to 50 nM injected, single-cycle kinetics, HBS-P (10 mM HEPES, 150 mM NaCl, 0.05% P20), 25 C, 1:1 Langmuir fit.

In test [3] the target is T2, recombinant mouse galectin-3, full …. Kind of test: ELISA; dose-response binding ELISA, IgG 0.0009 to 500 nM on immobilised hGal-3-FL and mGal-3-FL (hGal-14 in Supplementary Fig. 7b); detection by anti-hFab-HRP.
Test [4] has as its target T3, recombinant human galectin-3, full length, His-tagged (hGal-3-FL-His Nter) (Homo sapiens, UniProt P17931).
T3 construct: galectin-3, human, full length; the SPR methods say only recombinant Gal-3 (Novalix); also called FL hGal-3; FL-Gal-3; source: recombinant, produced by Novalix (Illkirch, France); not shown: His, N-terminal, kept
The test is described as above.

The target of a further test is T4, human galectin-14 (Homo sapiens, UniProt Q8TCE9).
T4 construct: galectin-14, human; also called hGal-14; Gal-14; source: bought: Novus Biologicals NBP1-50082
Described as above.

Test [5] has as its target T5, recombinant human galectin-3, full-length (Homo sapiens, UniProt P17931).
T5 construct: galectin-3 (Gal-3), human, full-length; the His tag is named for the Novalix protein in the ELISA methods; the SPR methods say only 'recombinant Gal-3 from multiple species (Novalix)'; also called human Gal-3 (FL); hGal-3 (FL); source: recombinant, produced by Novalix
Kind of test: SPR; Biacore T-200; mAb captured (400-680 RU) on a CM5 chip with immobilised anti-human Fc mAb; Gal-3 0.5-50 nM injected, single-cycle kinetics, 210 s association, 600 s dissociation, 30 uL/min; HBS-P (10 mM HEPES, 150 mM NaCl, 0.05% P20), 25 °C; 1:1 Langmuir fit; duplicates.

In test [6] the target is T6, recombinant mouse galectin-3, full-length (Mus musculus, UniProt P16110).
T6 construct: galectin-3 (Gal-3), mouse, full-length; the His tag is named for the Novalix protein in the ELISA methods; the SPR methods say only 'recombinant Gal-3 from multiple species (Novalix)'; also called mouse Gal-3 (FL); mGal-3 (FL); source: recombinant, produced by Novalix
The description is as above.

Test [7] has as its target T7, recombinant human galectin-3 carbohydrate recognition domain (Homo sapiens, UniProt P17931).
T7 construct: galectin-3 (Gal-3), human, carbohydrate recognition domain; the His tag is named in the ELISA methods, not in the SPR methods; also called hGal-3 (CRD); hGal-3-CRD-His Nter; source: recombinant, produced by Novalix
Described as above.

The target of test [8] is T8, recombinant dog galectin-3 carbohydrate recognition domain (Canis lupus familiaris, UniProt P38486).
T8 construct: galectin-3 (Gal-3), dog, carbohydrate recognition domain; also called dog Gal-3 (CRD); source: recombinant, Novalix
The description is as above.

Test [9] deals with T9, recombinant rat galectin-3 carbohydrate recognition domain (Rattus norvegicus, UniProt P08699).
T9 construct: galectin-3 (Gal-3), rat, carbohydrate recognition domain; also called rat Gal-3 (CRD); source: recombinant, Novalix
The description is as above.

Numbering of substitutions follows the chain as printed. A value given as a limit tells only on which side of the number the result lay.

T6 sequence (P16110 whole entry): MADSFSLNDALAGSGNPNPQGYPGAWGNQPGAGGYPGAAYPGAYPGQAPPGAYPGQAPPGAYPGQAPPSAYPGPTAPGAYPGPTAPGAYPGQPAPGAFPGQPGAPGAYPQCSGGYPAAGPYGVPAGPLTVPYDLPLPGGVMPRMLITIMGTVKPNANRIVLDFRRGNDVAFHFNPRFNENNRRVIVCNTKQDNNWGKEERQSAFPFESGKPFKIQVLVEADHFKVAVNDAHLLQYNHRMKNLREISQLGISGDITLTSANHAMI
T2 sequence (P16110 whole entry): as above
T5 sequence (P17931 whole entry): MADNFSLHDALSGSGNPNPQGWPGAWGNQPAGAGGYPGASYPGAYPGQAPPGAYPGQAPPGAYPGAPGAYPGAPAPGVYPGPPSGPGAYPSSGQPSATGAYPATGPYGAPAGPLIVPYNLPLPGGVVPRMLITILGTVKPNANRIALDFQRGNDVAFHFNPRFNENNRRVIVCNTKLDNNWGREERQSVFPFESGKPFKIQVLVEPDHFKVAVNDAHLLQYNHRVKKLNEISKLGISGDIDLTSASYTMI
T3 sequence (P17931 whole entry): as above
T1 sequence (P17931 114-250): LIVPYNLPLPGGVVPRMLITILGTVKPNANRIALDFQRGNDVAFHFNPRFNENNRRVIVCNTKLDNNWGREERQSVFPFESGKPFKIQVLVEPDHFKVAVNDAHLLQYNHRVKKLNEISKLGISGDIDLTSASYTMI
T4 sequence (Q8TCE9 whole entry): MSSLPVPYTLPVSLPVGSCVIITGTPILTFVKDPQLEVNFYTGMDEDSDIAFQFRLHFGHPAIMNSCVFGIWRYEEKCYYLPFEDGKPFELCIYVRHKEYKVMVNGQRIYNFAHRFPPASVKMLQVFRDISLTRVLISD

B1: D11 anti-Gal-3 monoclonal antibody (hIgG1 format, LALA) (antibody, V domains shown)
VH: EVQLVESGGSLVKPGGSLRLSCAASGFTFSNYNMNWVRQAPGKGLEWISSIYGSSRYIYYADFVKGRFTISRDNAKNSLYLQMNSLRAEDTAVYYCVRSSYGGMDVWGRGTLVTVSS
VL: QSVLTQPASVSGSPGQSITISCAGTSSDVGGSYNVAWYQQHPGKAPKLMIYYDSYRPSGVSNRFSGSKSGNTASLTISGLQAEDEADYYCSSYTGYSTRVFGGGTKLEIK
notes: from scFv D11 (HuscI library, human framework 13R4); human IgG1 heavy-chain constant region, engineered with the double LALA mutation in the Fc region; IgG1 with LALA; also called D11 mAb; source: CHO-K1 cells (Evitria), transfected, purified (protein A, MabSelect SuRe)
Consider B1, for which, in test [1], the IC50 was 2.18 nM. Also, the Kd in test [2] is below 5 nM. The EC50 was determined as 0.99 nM in test [3], 0.37 nM in test [4] and 59.9 nM with human galectin-14.

B2: E07 anti-Gal-3 monoclonal antibody (hIgG1 format, LALA) (antibody, V domains shown)
VH: B1 VH with S50N, S100Y
VL: B1 VL with S32Y, N34S, A36S, Y55N
notes: from scFv E07 (HuscI library, human framework 13R4); human IgG1 heavy-chain constant region, engineered with the double LALA mutation in the Fc region; IgG1 with LALA; also called E07 mAb; source: CHO-K1 cells (Evitria), transfected, purified (protein A, MabSelect SuRe)
As to B2, the IC50 in test [1] stood at 1.5 nM. Moreover, the Kd in test [2] was below 5 nM. The EC50 in [3] was 0.3 nM; in [4], 0.07 nM; in the test with human galectin-14, 90.6 nM.

B3: E07 anti-Gal-3 monoclonal antibody (antibody, V domains shown)
VH: B1 VH with S50N, S100Y
VL: B1 VL with S32Y, N34S, A36S, Y55N
notes: human IgG1, LALA; also called E07 mAb; source: CHO-K1 cells (Evitria), purified (protein A, MabSelect SuRe)
For the molecule B3, the Kd in test [5] stood at 9 nM; in test [6] it was 4.14 nM; in test [7], 14.4 nM; in test [8], 21.5 nM; in test [9], 15 nM. Further, the koff in test [5] stood at 0.0292 s⁻¹; in test [6] it was 0.00407 s⁻¹; in test [7], 0.0377 s⁻¹; in test [8] it was 0.016 s⁻¹; in test [9], 0.0497 s⁻¹. Further, the kon worked out at 3.24e+06 M⁻¹ s⁻¹ in test [5]; 983000 M⁻¹ s⁻¹ in test [6]; 2.61e+06 M⁻¹ s⁻¹ in test [7]; 746000 M⁻¹ s⁻¹ in [8]; 3.31e+06 M⁻¹ s⁻¹ in test [9].

B4: D11 anti-Gal-3 monoclonal antibody (antibody, V domains shown)
VH: B1 VH
VL: B1 VL
notes: human IgG1, LALA; also called D11 mAb; source: CHO-K1 cells (Evitria), purified (protein A, MabSelect SuRe)
Consider B4, for which the Kd in [5] is 14.9 nM; in [6], 2.8 nM; in test [7] it was 26.4 nM; in test [8], 24.7 nM; in test [9], 8.55 nM. Also, the koff amounted to 0.0247 s⁻¹ in test [5]; 0.00178 s⁻¹ in test [6]; 0.0428 s⁻¹ in [7]; 0.0235 s⁻¹ in test [8]; 0.018 s⁻¹ in test [9]. Further, the kon in [5] worked out at 1.66e+06 M⁻¹ s⁻¹; in test [6] it was 635000 M⁻¹ s⁻¹; in [7], 1.62e+06 M⁻¹ s⁻¹; in test [8], 948000 M⁻¹ s⁻¹; in test [9], 2.11e+06 M⁻¹ s⁻¹.
